Where a chain is given by its changes, count along the chain named. Values belong to the binder of their own block, whether it stands above or below them.
What was measured:
[1] = target: T1, TROP2 on BxPC-3 and MDA-MB-231-KWL cells (human, UniProt P09758 27-323); experiment: on-cell ELISA, MDA-MB-231-KWL cells (TROP2 low); parameters: unit not given beside the values
T1 construct: whole, on cells
T1 sequence (looked up): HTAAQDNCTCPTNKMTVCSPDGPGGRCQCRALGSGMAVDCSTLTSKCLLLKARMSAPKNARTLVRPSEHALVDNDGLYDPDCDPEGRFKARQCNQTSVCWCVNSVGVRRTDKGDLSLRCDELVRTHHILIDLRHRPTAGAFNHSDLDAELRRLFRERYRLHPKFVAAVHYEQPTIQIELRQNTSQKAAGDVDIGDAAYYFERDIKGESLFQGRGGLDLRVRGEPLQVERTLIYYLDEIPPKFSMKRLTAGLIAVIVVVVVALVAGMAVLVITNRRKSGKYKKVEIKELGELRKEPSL
Description: (§1) Cells were plated in duplicate onto 96-well plates, and primary antibody was diluted in cell culture medium with a starting concentration of 30 μg/mL (200 nM) with a dilution factor of 1:5. […] Data was plotted and analyzed. EC50 ([…]) was measured along with area under the curve (AUC) for each cell line.

[2] = target: T1, TROP2 on BxPC-3 and MDA-MB-231-KWL cells; experiment: on-cell ELISA, BxPC-3 vs MDA-MB-231-KWL cells
Description: as §1

[3] = target: T1, TROP2 on BxPC-3 and MDA-MB-231-KWL cells; experiment: on-cell ELISA, BxPC-3 cells (TROP2 high); parameters: unit not given beside the values
Description: as §1

AUC (MDA-MB-231-KWL) [1]: 248
ΔAUC [2]: 70.1
AUC (BxPC-3) [3]: 318
B1: Sacituzumab (antibody, human IgG1, kappa, V domains shown)
VH: QVQLQQSGSELKKPGASVKVSCKASGYTFTNYGMNWVKQAPGQGLKWMGWINTYTGEPTYTDDFKGRFAFSLDTSVSTAYLQISSLKADDTAVYFCARGGFGSSYWYFDVWGQGSLVTVSS
VL: DIQLTQSPSSLSASVGDRVSITCKASQDVSIAVAWYQQKPGKAPKLLIYSASYRYTGVPDRFSGSGSGTDFTLTISSLQPEDFAVYYCQQHYITPLTFGAGTKVEIKR
notes: also called mAb (parental)

AUC (MDA-MB-231-KWL) [1]: 240
ΔAUC [2]: 77.4
AUC (BxPC-3) [3]: 318
B2: mAb_Lm_T94F_HC (antibody, human IgG1, kappa)
heavy: not shown
light: DIQLTQSPSSLSASVGDRVSITCKASQDVSIAVAWYQQKPGKAPKLLIYSASYRYTGVPDRFSGSGSGTDFTLTISSLQPEDFAVYYCQQHYIFPLTFGAGTKVEIKRTVAAPSVFIFPPSDEQLKSGTASVVCLLNNFYPREAKVQWKVDNALQSGNSQESVTEQDSKDSTYSLSSTLTLSKADYEKHKVYACEVTHQGLSSPVTKSFNRGEC

AUC (MDA-MB-231-KWL) [1]: 64.3
ΔAUC [2]: 192
AUC (BxPC-3) [3]: 256
B3: mAb_Lm_A32P_HC (antibody, human IgG1, kappa)
heavy: not shown
light: B2 light with A32P, F94T

AUC (MDA-MB-231-KWL) [1]: 207
ΔAUC [2]: 71.4
AUC (BxPC-3) [3]: 278
B4: mAb_LC_Hm_F108T (antibody, human IgG1, kappa)
heavy: not shown
light: B2 light with F94T

AUC (MDA-MB-231-KWL) [1]: 221
ΔAUC [2]: 93.1
AUC (BxPC-3) [3]: 314
B5: mAb_LC_Hm_F101T (antibody, human IgG1, kappa)
heavy: not shown
light: B2 light with F94T

AUC (MDA-MB-231-KWL) [1]: 227
ΔAUC [2]: 76.1
AUC (BxPC-3) [3]: 303
B6: mAb_LC_Hm_F108S (antibody, human IgG1, kappa)
heavy: not shown
light: B2 light with F94T

AUC (MDA-MB-231-KWL) [1]: 219
ΔAUC [2]: 71.9
AUC (BxPC-3) [3]: 291
B7: mAb_LC_Hm_F29G (antibody, human IgG1, kappa)
heavy: not shown
light: B2 light with F94T

AUC (MDA-MB-231-KWL) [1]: 173
ΔAUC [2]: 116
AUC (BxPC-3) [3]: 289
B8: mAb_LC_Hm_N31P (antibody, human IgG1, kappa)
heavy: not shown
light: B2 light with F94T

AUC (MDA-MB-231-KWL) [1]: 22.2
ΔAUC [2]: 117
AUC (BxPC-3) [3]: 140
B9: mAb_LC_Hm_W106E (antibody, human IgG1, kappa)
heavy: not shown
light: B2 light with F94T

AUC (MDA-MB-231-KWL) [1]: 230
ΔAUC [2]: 86.5
AUC (BxPC-3) [3]: 317
B10: mAb_LC_Hm_Y107N (antibody, human IgG1, kappa)
heavy: not shown
light: B2 light with F94T

ΔAUC [2]: 80.5
AUC (BxPC-3) [3]: 291
B11: mAb_Lm_V29R_HC (antibody, human IgG1, kappa)
heavy: not shown
light: B2 light with V29R, F94T

AUC (MDA-MB-231-KWL) [1]: 205
ΔAUC [2]: 102
AUC (BxPC-3) [3]: 307
B12: mAb_Lm_Y53S_HC (antibody, human IgG1, kappa)
heavy: not shown
light: B2 light with Y53S, F94T

AUC (MDA-MB-231-KWL) [1]: 16.1
ΔAUC [2]: 148
AUC (BxPC-3) [3]: 165
B13: mAb_Lm_Y92E_HC (antibody, human IgG1, kappa)
heavy: not shown
light: B2 light with Y92E, F94T

ΔAUC [2]: 178
AUC (BxPC-3) [3]: 285
B14: mAb_LC_Hm_S104D (antibody, human IgG1, kappa)
heavy: not shown
light: B2 light with F94T

AUC (MDA-MB-231-KWL) [1]: 28.7
ΔAUC [2]: 186
AUC (BxPC-3) [3]: 215
B15: mAb_LC_Hm_W106A (antibody, human IgG1, kappa)
heavy: not shown
light: B2 light with F94T

AUC (MDA-MB-231-KWL) [1]: 220
ΔAUC [2]: 85.3
AUC (BxPC-3) [3]: 305
B16: mAb_Lm_I93G_HC (antibody, human IgG1, kappa)
heavy: not shown
light: B2 light with I93G, F94T

AUC (MDA-MB-231-KWL) [1]: 13.1
ΔAUC [2]: 147
AUC (BxPC-3) [3]: 160
B17: mAb_Lm_Y92A_HC (antibody, human IgG1, kappa)
heavy: not shown
light: B2 light with Y92A, F94T

AUC (MDA-MB-231-KWL) [1]: 80
ΔAUC [2]: 188
AUC (BxPC-3) [3]: 268
B18: mAb_LC_Hm_Y105S (antibody, human IgG1, kappa)
heavy: not shown
light: B2 light with F94T

AUC (MDA-MB-231-KWL) [1]: 158
ΔAUC [2]: 142
AUC (BxPC-3) [3]: 300
B19: mAb_LC_Hm_F101E (antibody, human IgG1, kappa)
heavy: not shown
light: B2 light with F94T

AUC (MDA-MB-231-KWL) [1]: 193
ΔAUC [2]: 104
AUC (BxPC-3) [3]: 298
B20: mAb_LC_Hm_Y32E (antibody, human IgG1, kappa)
heavy: not shown
light: B2 light with F94T

AUC (MDA-MB-231-KWL) [1]: 214
ΔAUC [2]: 86.6
AUC (BxPC-3) [3]: 300
B21: mAb_Lm_D28H_HC (antibody, human IgG1, kappa)
heavy: not shown
light: B2 light with D28H, F94T

AUC (MDA-MB-231-KWL) [1]: 129
ΔAUC [2]: 156
AUC (BxPC-3) [3]: 286
B22: mAb_LC_Hm_G33I (antibody, human IgG1, kappa)
heavy: not shown
light: B2 light with F94T

AUC (MDA-MB-231-KWL) [1]: 60.9
ΔAUC [2]: 191
AUC (BxPC-3) [3]: 251
B23: mAb_LC_Hm_W106L (antibody, human IgG1, kappa)
heavy: not shown
light: B2 light with F94T

AUC (MDA-MB-231-KWL) [1]: 230
ΔAUC [2]: 94.9
AUC (BxPC-3) [3]: 324
B24: mAb_LC_Hm_F108Q (antibody, human IgG1, kappa)
heavy: not shown
light: B2 light with F94T

AUC (MDA-MB-231-KWL) [1]: 201
ΔAUC [2]: 98.1
AUC (BxPC-3) [3]: 299
B25: mAb_Lm_Q89V_HC (antibody, human IgG1, kappa)
heavy: not shown
light: B2 light with Q89V, F94T

AUC (MDA-MB-231-KWL) [1]: 213
ΔAUC [2]: 105
AUC (BxPC-3) [3]: 317
B26: mAb_Lm_Y53V_HC (antibody, human IgG1, kappa)
heavy: not shown
light: B2 light with Y53V, F94T

AUC (MDA-MB-231-KWL) [1]: 140
ΔAUC [2]: 169
AUC (BxPC-3) [3]: 309
B27: mAb_Lm_Y53N_HC (antibody, human IgG1, kappa)
heavy: not shown
light: B2 light with Y53N, F94T

AUC (MDA-MB-231-KWL) [1]: 163
ΔAUC [2]: 101
AUC (BxPC-3) [3]: 265
B28: mAb_LC_Hm_Y107I (antibody, human IgG1, kappa)
heavy: not shown
light: B2 light with F94T

AUC (MDA-MB-231-KWL) [1]: 47.1
ΔAUC [2]: 169
AUC (BxPC-3) [3]: 216
B29: mAb_Lm_S30R_HC (antibody, human IgG1, kappa)
heavy: not shown
light: B2 light with S30R, F94T

AUC (MDA-MB-231-KWL) [1]: 17.8
ΔAUC [2]: 124
AUC (BxPC-3) [3]: 142
B30: mAb_Lm_A32Q_HC (antibody, human IgG1, kappa)
heavy: not shown
light: B2 light with A32Q, F94T

AUC (MDA-MB-231-KWL) [1]: 137
ΔAUC [2]: 144
AUC (BxPC-3) [3]: 281
B31: mAb_LC_Hm_G33S (antibody, human IgG1, kappa)
heavy: not shown
light: B2 light with F94T

AUC (MDA-MB-231-KWL) [1]: 162
ΔAUC [2]: 132
AUC (BxPC-3) [3]: 294
B32: mAb_Lm_H91K_HC (antibody, human IgG1, kappa)
heavy: not shown
light: B2 light with H91K, F94T

AUC (MDA-MB-231-KWL) [1]: 157
ΔAUC [2]: 148
AUC (BxPC-3) [3]: 305
B33: mAb_Lm_S50T_HC (antibody, human IgG1, kappa)
heavy: not shown
light: B2 light with S50T, F94T

ΔAUC [2]: 134
AUC (BxPC-3) [3]: 304
B34: mAb_Lm_Y53P_HC (antibody, human IgG1, kappa)
heavy: not shown
light: B2 light with Y53P, F94T
notes: built from the Sacituzumab light chain with the named substitution

AUC (MDA-MB-231-KWL) [1]: 4.22
ΔAUC [2]: 129
AUC (BxPC-3) [3]: 133
B35: mAb_Lm_S50L_HC (antibody, human IgG1, kappa)
heavy: not shown
light: B2 light with S50L, F94T

ΔAUC [2]: 181
AUC (BxPC-3) [3]: 226
B36: mAb_Lm_Y92N_HC (antibody, human IgG1, kappa)
heavy: not shown
light: B2 light with Y92N, F94T

ΔAUC [2]: 143
AUC (BxPC-3) [3]: 323
B37: mAb_Lm_Y53R_HC (antibody, human IgG1, kappa)
heavy: not shown
light: B2 light with Y53R, F94T

AUC (MDA-MB-231-KWL) [1]: 16.9
AUC (BxPC-3) [3]: 184
B38: mAb_Lm_H91Y_HC (antibody, human IgG1, kappa)
heavy: not shown
light: B2 light with H91Y, F94T

AUC (MDA-MB-231-KWL) [1]: 7.7
ΔAUC [2]: 134
AUC (BxPC-3) [3]: 142
B39: mAb_LC_Hm_G33P (antibody, human IgG1, kappa)
heavy: not shown
light: B2 light with F94T
